Measured values taken from the supplement of paper PMC7877785.
± gives the uncertainty stated by the source.

Assay: self-splicing fitness, log relative to wild type (ln ratio); higher = more splicing; Tetrahymena group I intron in knt gene, E. coli kanamycin selection, DiMSum; sequences stand for … in CUCUCU…GGAGGGAAAAGUUAUCAGGCAUGCACCUGGUAGCUAGUCUUUAAACCAAUAGAUUGCAUCGGUUUAAAAGGCAAGACCGUCAAAUUGCGGGAAAGGGGUCAACAGCCGUUCAGUACCAAGUCUCAGGGGAAACUUUGAGAUGGCCUUGCAAAGGGUAUGGUAAUAAGCUGACGGACAUGGUCCUAACCACGCAGCCAAGUCCUAAGUCAACAGAUCUUCUGUUGAUAUGGAUGCAGUUCACAGACUAAAUGUCGGUCGGGGAAGAUGUAUUCUUCUCAUAAGAUAUAGUCGGACCUCUCCUUAAUGGGAGCUAGCGGAUGAAGUGAUGCAACACUGGAGCCGCUGGGAACUAAUUUGUAUGCGAAAGUAUAUUGAUUAGUUUUGGAGUACUCGUGGUCG
Procedure, shortened: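 The eight P1ex-region nucleotides of an intron in the knt kanamycin-resistance gene on pET-22b(+) were all randomised and the library put into E. coli BL21(DE3). Six replicate transformations were grown overnight at 37°C or 30°C on LB agar with or without 25 μg/mL kanamycin, together with 100 μg/mL carbenicillin, 50 μM IPTG and 0.2% rhamnose. Colonies were pooled and amplicon-sequenced on an Illumina HiSeq 2500. Fitness from DiMSum is the error-weighted combination of wild-type-normalised replicate fold changes, kanamycin over none.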

Sequence	self-splicing fitness (ln) (30 °C)	self-splicing fitness (ln) (37 °C)
CCACAGCAAUAUUACGACCU	-3.94 ± 0.3	-2.82 ± 0.18
UAGCAGCAAUAUUACGAAUG	-0.736 ± 0.072	-0.47 ± 0.13
UCUCAGCAAUAUUACGUACC	-3.25 ± 0.46	-1.69 ± 0.25
CGCCAGCAAUAUUACGCGUG	-2.06 ± 0.1	-0.717 ± 0.093
CAACAGCAAUAUUACGUCAC	-3.96 ± 0.24	-2.26 ± 0.18
CCAUAGCAAUAUUACGCUGA	-3.52 ± 0.41	-1.99 ± 0.28
CCACAGCAAUAUUACGGGCG	-0.605 ± 0.065	0.193 ± 0.087
CCCUAGCAAUAUUACGGAAC	-4.39 ± 0.43	-2.85 ± 0.4
UGUGAGCAAUAUUACGCGUA	-2.35 ± 0.34	-0.703 ± 0.27
AACAAGCAAUAUUACGCAAC	-3.89 ± 0.22	-1.63 ± 0.12
AGAAAGCAAUAUUACGCCAU	-3.16 ± 0.2	-2.21 ± 0.2
AGCUAGCAAUAUUACGUCAU	-2.65 ± 0.1	-1.54 ± 0.1
CAUUAGCAAUAUUACGGUAC	-1.9 ± 0.16	-2.07 ± 0.46
AGUGAGCAAUAUUACGGCUC	-4.11 ± 0.26	-2.03 ± 0.2
CAUGAGCAAUAUUACGUGUU	-3.85 ± 0.16	-2.31 ± 0.15
GAGAAGCAAUAUUACGGCAU	-0.391 ± 0.07	0.567 ± 0.11
GGUAAGCAAUAUUACGCUUU	-1.88 ± 0.24	-2.02 ± 0.33
AGCCAGCAAUAUUACGAUCC	-2.27 ± 0.15	-1.02 ± 0.19
AGCUAGCAAUAUUACGAUAC	-3.44 ± 0.49	-1.59 ± 0.28
AUUAAGCAAUAUUACGCGCG	-0.63 ± 0.13	-0.752 ± 0.17
AUAUAGCAAUAUUACGAAGA	-2.16 ± 0.4	-1.98 ± 0.47
CUCGAGCAAUAUUACGAUGC	-4.39 ± 0.46	-3 ± 0.47
ACGGAGCAAUAUUACGUCUG	-1.94 ± 0.19	0.013 ± 0.14
CAGCAGCAAUAUUACGCCAG	-0.865 ± 0.089	0.0215 ± 0.12
UACUAGCAAUAUUACGGGCA	-0.178 ± 0.071	0.53 ± 0.11
UAUCAGCAAUAUUACGUGGC	-4.28 ± 0.36	-2.41 ± 0.27

Sequence	self-splicing fitness (ln) (30 °C)	self-splicing fitness (ln) (37 °C)
GUUCAGCAAUAUUACGCGUU	-0.588 ± 0.062	0.431 ± 0.067
CGAGAGCAAUAUUACGAACG	-2.48 ± 0.2	-1.04 ± 0.21
CCCAAGCAAUAUUACGGUUU	-3.72 ± 0.12	-2.92 ± 0.11
AAAGAGCAAUAUUACGCUUG	-1.67 ± 0.13	-1.19 ± 0.18
UAAAAGCAAUAUUACGGGAA	-2.63 ± 0.2	-1.18 ± 0.12
CCCAAGCAAUAUUACGUCGU	-4.05 ± 0.2	-2.31 ± 0.15
UAAAAGCAAUAUUACGCCGG	-0.134 ± 0.11	0.0922 ± 0.14
AGGAAGCAAUAUUACGAUGC	-2.26 ± 0.17	-1.04 ± 0.22
AGAGAGCAAUAUUACGUUGG	-3.15 ± 0.14	-2.76 ± 0.18
GGCAAGCAAUAUUACGUGUG	-0.694 ± 0.062	-0.126 ± 0.071
CUUUAGCAAUAUUACGUGGU	-2.28 ± 0.25	-2.8 ± 0.26
UUGCAGCAAUAUUACGCAGC	-2.41 ± 0.41	-1.83 ± 0.3
GUGUAGCAAUAUUACGAUAU	-0.699 ± 0.17	-0.881 ± 0.21
CGACAGCAAUAUUACGACCU	-1.56 ± 0.099	0.317 ± 0.11
GAAGAGCAAUAUUACGCAUA	-3.1 ± 0.19	-2.62 ± 0.22
UAACAGCAAUAUUACGCAUG	-1.43 ± 0.086	-0.695 ± 0.099
GGUAAGCAAUAUUACGGUGG	-2.82 ± 0.12	-3.18 ± 0.24
AGUAAGCAAUAUUACGCCAA	-3.35 ± 0.29	-2.6 ± 0.24
AAGUAGCAAUAUUACGGAUC	-1.17 ± 0.083	-0.819 ± 0.12
CCGGAGCAAUAUUACGCGUA	-3.18 ± 0.3	-1.59 ± 0.2
CUUCAGCAAUAUUACGGUUG	-1.28 ± 0.071	-0.455 ± 0.088
CUCGAGCAAUAUUACGGUCC	-3 ± 0.36	-2.33 ± 0.45
GCAAAGCAAUAUUACGGUAC	-1.91 ± 0.086	0.0303 ± 0.092
GCACAGCAAUAUUACGGAUU	-0.914 ± 0.055	-0.231 ± 0.073
AAGGAGCAAUAUUACGAUCA	-1.18 ± 0.36	
CGUAAGCAAUAUUACGCGCA	-1.3 ± 0.16	-0.345 ± 0.14

Sequence	self-splicing fitness (ln) (30 °C)	self-splicing fitness (ln) (37 °C)
GAGCAGCAAUAUUACGCUCG	-2.11 ± 0.33	-0.285 ± 0.22
AAGAAGCAAUAUUACGCUGA	-2.47 ± 0.14	-2.04 ± 0.18
AGAUAGCAAUAUUACGGGCC	-1.68 ± 0.19	-2.68 ± 0.36
AGCGAGCAAUAUUACGGGCG	-1.23 ± 0.08	-0.431 ± 0.099
GUAAAGCAAUAUUACGCGCA	0.459 ± 0.16	-0.0064 ± 0.17
AGACAGCAAUAUUACGUGUG	-2 ± 0.063	-1.44 ± 0.072
ACGGAGCAAUAUUACGUCCU	-1.85 ± 0.13	-1.27 ± 0.15
GGAAAGCAAUAUUACGGUAA	-1.62 ± 0.15	-0.544 ± 0.12
ACAUAGCAAUAUUACGCCGU	-2.02 ± 0.17	-1.23 ± 0.2
GACAAGCAAUAUUACGAAAU	-2.47 ± 0.14	-0.766 ± 0.14
AGGCAGCAAUAUUACGCGCG	-0.446 ± 0.12	-0.358 ± 0.14
CCGUAGCAAUAUUACGACAA	-3.54 ± 0.27	-3.19 ± 0.33
AAAGAGCAAUAUUACGUCUA	-1.12 ± 0.093	-0.882 ± 0.093
UCGAAGCAAUAUUACGGUGC	-2.62 ± 0.25	
UACGAGCAAUAUUACGUUUG	-3.84 ± 0.27	-1.94 ± 0.17
GAGGAGCAAUAUUACGCGGG	-2.11 ± 0.31	-2.66 ± 0.34
GCAGAGCAAUAUUACGCAUC	-3.14 ± 0.34	
UGAUAGCAAUAUUACGAAUG	-1.19 ± 0.12	-1.14 ± 0.16
GGAUAGCAAUAUUACGAUAG	-2.63 ± 0.23	-2.86 ± 0.47
GAAAAGCAAUAUUACGUAUA	-0.936 ± 0.098	-0.833 ± 0.12
GCCGAGCAAUAUUACGCGGU	-3.47 ± 0.18	-3.36 ± 0.42
GAACAGCAAUAUUACGUGUU	-3.97 ± 0.17	-2.61 ± 0.16
CUCGAGCAAUAUUACGAUUC	-3.29 ± 0.47	
CACUAGCAAUAUUACGUACC	-3.22 ± 0.18	-2.55 ± 0.24
